Measured values reported in patent US20200102553A1.

Biological target: membrane-tethered Cre fusion: signal peptide, flag tag, CD8 transmembrane domain, GzB cleavage site, Cre recombinase (UniProt P01732)
Experiment: cell-based or functional assay

## Granzyme B (GzB) (from UniProt P10144 21-247) (enzyme)
  reporter inversion by released Cre, qPCR: 3 fold
